This is an account of results in patent US20240368277A1 (ORIONIS BIOSCIENCES, published 2024).

Experiment [1] addresses T1, full length human SIRPA expressed on transiently transfected Hek293T cells (pMET7 FLAG-hSIRPA) (human, UniProt P78324 31-504).
T1 construct: whole, on cells; also called human SIRP1α; human SIRPα
Nature of the experiment: FACS, serial dilution of purified VHH on hSIRPA- or empty vector (MOCK)-transfected Hek293T cells; FITC-coupled anti-HA antibody. Here is the method:
Expression-vectors (pMECS) encoding the 27 putative human SIRPA binding VHHs were transformed to WK6 cells. VHHs (with a C-terminal HA and His-tag) were expressed in periplasmic extracts upon IPTG overnight stimulation and purified from the periplasmic extracts using the HisPur Cobalt Spin Plates (ThermoFisher) according to the manufacturer's guidelines. Purified VHHs were applied in a FACS binding-assay at 1 μg/ml: Hek293T cells were transiently transfected with a full length human SIRPA plasmid (pMET7 FLAG-hSIRPA) or an empty vector (MOCK). Two days after transfection, cells were resuspended and incubated with purified VHH in FACS buffer (PBS+0.5 mM EDTA+3% FBS). VHH binding was detected using a FITC-coupled anti-HA Ab (Genscript). Samples were acquired with a MACSQuant X instrument (Miltenyi Biotec) and analyzed using the FlowLogic software (Miltenyi Biotec).
Based on this initial binding-experiment and on the comparison of the 27 sequences, 5 VHHs (4 members of sequence group 1 which encompasses 26 sequences and 2HSI22 which is a unique representative of sequence group 2) were studied in more detail for binding to human SIRPA. Binding in FACS was measured as described above. In brief, hSIRPA or empty vector (MOCK) transfected cells were incubated with a serial dilution of purified VHH and binding detected using a FITC-coupled anti-HA Ab (GenScript). Data are summarized in FIG. 7 and illustrate concentration dependent specific binding to hSIRPA for all 5 VHHs.

In experiment [2] the target is T2, His6-tagged recombinant extracellular domain of human signal regulatory protein alpha (hSIRP1α) (human, UniProt P78324 31-373).
T2 construct: extracellular domain; also called antigen; not shown: His6 tag
Nature of the experiment: ELISA, crude periplasmic extracts on coated His6-tagged hSIRP1α extracellular domain. The procedure: The VHH library was panned on solid-phase coated antigen (200 μg/ml in 100 mM NaHCO₃, pH 9.3) for 3 rounds. The enrichment for antigen-specific phages was assessed after each round of panning by comparing the number of phagemid particles eluted from antigen-coated wells with the number of phagemid particles eluted from negative control (uncoated blocked) wells. […] There was no enrichment after the 1st panning round. In total, 190 colonies from panning round 2 were randomly selected and analyzed by ELISA for the presence of antigen-specific VHHs in their periplasmic extracts (ELISA using crude periplasmic extracts including soluble VHHs) (see FIG. 5). The antigens used for panning and ELISA screening were the same as the ones used for immunization, using uncoated blocked wells as negative control. […] Based on sequence data of the positive colonies, 27 different full length VHHs were distinguished (see FIGS. 4A, 4B, and 5 and SEQ ID Nos: 300-326).
(In an ELISA, binding on a coated surface is turned into a signal by an enzyme label.)

T1 sequence (P78324 31-504): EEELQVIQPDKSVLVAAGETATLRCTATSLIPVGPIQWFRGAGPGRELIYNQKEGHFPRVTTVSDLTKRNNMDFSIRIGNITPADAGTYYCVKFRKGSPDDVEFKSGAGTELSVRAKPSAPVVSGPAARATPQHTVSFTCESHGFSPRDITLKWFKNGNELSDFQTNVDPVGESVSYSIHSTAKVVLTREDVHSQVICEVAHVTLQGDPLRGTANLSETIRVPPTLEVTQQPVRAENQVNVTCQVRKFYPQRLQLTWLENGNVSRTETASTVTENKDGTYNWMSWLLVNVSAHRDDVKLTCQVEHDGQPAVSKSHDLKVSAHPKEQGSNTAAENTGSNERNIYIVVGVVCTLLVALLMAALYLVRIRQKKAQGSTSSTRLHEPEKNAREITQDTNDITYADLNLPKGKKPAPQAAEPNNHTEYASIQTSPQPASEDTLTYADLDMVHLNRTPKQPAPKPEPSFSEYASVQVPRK
T2 sequence (P78324 31-373): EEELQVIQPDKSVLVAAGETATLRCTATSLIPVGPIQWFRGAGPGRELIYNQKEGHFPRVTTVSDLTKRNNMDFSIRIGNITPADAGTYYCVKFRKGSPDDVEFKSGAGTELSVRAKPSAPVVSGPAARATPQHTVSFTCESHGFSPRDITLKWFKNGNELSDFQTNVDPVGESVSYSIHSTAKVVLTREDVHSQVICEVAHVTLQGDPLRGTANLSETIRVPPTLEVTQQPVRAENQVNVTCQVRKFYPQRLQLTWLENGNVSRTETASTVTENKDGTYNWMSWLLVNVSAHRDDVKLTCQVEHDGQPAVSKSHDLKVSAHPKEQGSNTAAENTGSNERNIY

B1: 2HSI22 (VHH)
VHH: QVQLQESGGGLVQPGGSLRLSCAASGLNFRRYTMGWFRQAPGKEREFVGVINWSDDSIYYADSVKGRFAISRDNTKNTVYLQMASLKPEDTAVYYCAASPQWDTRVRQTMRGKYDYWGQGTQVTVSS
notes: The entry includes the C-terminal AAA linker, HA tag and His6 tag, as expressed from pMECS
As to B1, the binding result in experiment [1] and in experiment [2] was “binds” each time.
